In patent US20140271467A1 (Stanford University, published 2014) one finds binding result and Kd data, which are given here for six molecules.

Test [1] concerns the target T1, biotinylated human CD20 extracellular loop peptide (amino acids 165-185) (human, biotin at the C-terminus (printed as SEQ ID NO: 1-biotin)).
T1 construct: Chemically synthesized; also called CD20 peptide; biotin-CD20 peptide
T1 peptide: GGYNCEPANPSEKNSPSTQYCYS
Put plainly: selection from the G4 library against the CD20 peptide. From the text:
The human CD20 peptide extracellular loop was synthesized (amino acids: 165-185; […] (SEQ ID NO: 1)-biotin) and purified by RP-HPLC on a C-18 column and lyophilized as per the published procedure (29). This peptide was characterized by ESI-MS and immobilized on streptavidin magnetic beads for screening of FN3 binders. […] Briefly, yeast displaying 2.5×10⁸ FN3 mutants were sorted for binding to magnetic beads with immobilized CD20 peptide, followed by fluorescence-activated cell sorting for full-length proteins using the C-terminal c-myc epitope. Plasmid DNA from selected clones was recovered, mutated by error-prone PCR of either the entire FN3 gene or the paratope loops, and reintroduced into yeast by electroporation with homologous recombination. As binder enrichment progressed in later evolutionary cycles, fluorescence-activated cell sorting for binding to soluble CD20 peptide was also used. Six cycles of selection and mutation were performed. Plasmid DNA was recovered, transformed into bacteria, and individual clones were sequenced by standard DNA sequencing methods.

In test [2] the target is T1, biotinylated human CD20 extracellular …. Briefly: affinity titration with yeast surface display and flow cytometry, biotinylated CD20. (A flow cytometer gives signals particle by particle.)
For test [3], the target named is T2, human CD20 antigen on live Ramos cells (human, UniProt P11836 1-297).
T2 construct: whole, on cells; Endogenous CD20 on Ramos cells (ATCC); also called cellular CD20; huCD20
T2 sequence (looked up): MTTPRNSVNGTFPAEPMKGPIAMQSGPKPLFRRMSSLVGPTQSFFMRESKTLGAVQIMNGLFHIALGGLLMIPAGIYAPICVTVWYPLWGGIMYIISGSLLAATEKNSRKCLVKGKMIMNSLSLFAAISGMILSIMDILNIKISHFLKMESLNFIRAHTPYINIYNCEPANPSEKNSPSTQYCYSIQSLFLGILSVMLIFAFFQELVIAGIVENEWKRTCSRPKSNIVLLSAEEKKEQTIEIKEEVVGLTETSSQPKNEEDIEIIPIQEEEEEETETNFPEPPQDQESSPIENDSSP
Put plainly: flow cytometry on live Ramos cells, 1:1 fit; flow cytometry, live Ramos cells (cellular CD20). As to the method: FIG. 1C illustrates a graph showing the antigen-binding activity of FN3CD20. Ramos cells were incubated with the indicated concentration (0.5-80 nM) of FITC-FN3CD20 for 1 h at 4° C. Cells were washed and analyzed by flow cytometry. The data are expressed as the mean±standard deviation of three independent experiments. Data were normalized with respect to saturated fluorescence intensity (plateau) observed at the highest target concentrations.

Test [4] concerns the target T1, biotinylated human CD20 extracellular …. Put plainly: SPR (Biacore), biotin-CD20 peptide on a streptavidin chip, 1:1 fit, 25 C; SPR, CD20 peptide (amino acids 165-185). As to the method:
FN3CD20 protein (0.4, 2, 10, 50, 250, and 750 nM) was diluted in HBS and injected into the chip at a flow rate of 15 μL/min for 1 min at 25° C.
All measurements were performed at 25° C. on a BIAcore 100 instrument and streptavidin chip (GE healthcare Biosciences, PA). The streptavidin chip was first cleaned with three consecutive 1-min. injections of 40 μl, of a solution of 1 M NaCl in 50 mM NaOH before the immobilization procedure. Five minutes after the cleaning process when the sensorgram reached a stable baseline, biotynalated CD20 peptide, diluted in running buffer to 20 μg/mL, was injected for 7 min. using a flow rate of 5 μL/min. The same procedure was performed for immobilization of non-specific CD20 peptide, except that the non-specific CD20 peptide was diluted in running buffer to 200 μg/ml. To attain maximum immobilization level of biotin peptides on the surface of streptavidin, multiple injections were performed.
Target antigen of CD20 peptide was immobilized on a streptavidin chip. FN3CD20 was analyzed in 10 mM HEPES, pH 7.4, 150 mM NaCl, 0.005% Tween 20 at […] concentrations between 0 and 750 nM, and non-specific FN3 was used as control. The flow-rate was 15 μl/min; association and dissociation times were 1 and 2 min, respectively. […] The data were analyzed using BIAeval (BIAcore) software, with a global fitting to the 1:1 binding model. […]
A general note: In SPR one partner is held on a chip, and binding of the other changes the refractive index at the surface.

Test [5] deals with T2, human CD20 antigen on live Ramos cells. Briefly: radiotracer binding to Ramos cells.

B1: FN3CD20-01 (fibronectin type 3 domain clone selected against the CD20 peptide from the G4 library) (designed binder)
chain: ASVSDVPRDLEVVAATPTSLLISWHYTCAGSYRITYGETGGNSPVQEFTVPGSWKTATISGLKPGVDYTITVYAVTHYYGWDRYSHPISINYRTGSHHHHHH
notes: It was a library clone during selection
As to B1, the binding result in test [1] is “binds”.

B2: FN3CD20-02 (fibronectin type 3 domain clone selected against the CD20 peptide from the G4 library) (designed binder)
chain: ASVSDVPRDLEVVAATPTSLLISWHYTCADSYRITYGETGGNSPVQEFTVPWYVSNATISGLKPGVDYTITVYVVTHYYGWDRYSHPISINYRTGSHHHHHH
notes: as for B1
Consider B2, for which the binding result in test [1] was “binds”.

B3: FN3CD20-03 (fibronectin type 3 domain clone selected against the CD20 peptide from the G4 library) (designed binder)
chain: ASVSDVPRDLGVVAATPTSLLISWHSSDVSYYRITYGETGGNSPVQEFTVPYWFTNTTISGLKPGVDYTITVYAATYRDCSSEPISINYRTGSHHHHHH
notes: as for B1
Regarding B3, in test [1], the binding result is “binds”.

B4: FN3CD20 clone displayed on the yeast surface (designed binder, not shown: large carriers)
chain: ASVSDVPRDLEVVAATPTSLLISWCRQRCADSYRITYGETGGNSPVQEFTVPGSWKTATISGLKPGVDYTITVYVVTHYYGWDRYSHPISINYRTGSHHHHHH
notes: also called one clone; this clone
By Kd is commonly meant the equilibrium constant for the complex coming apart. In test [2], B4 came in with a Kd of 14.3 nM.

B5: FN3CD20 (engineered fibronectin type 3 domain binding CD20, soluble, C-terminal His6 tag) (designed binder)
chain: ASVSDVPRDLEVVAATPTSLLISWCRQRCADSYRITYGETGGNSPVQEFTVPGSWKTATISGLKPGVDYTITVYVVTHYYGWDRYSHPISINYRTGSHHHHHH
notes: Made in E. coli with a His6 tag; also called FN3 scaffold
With B5, the Kd in test [3] was determined as 20 nM; in test [4], 22 nM.

B6: 64Cu-Do-FN3CD20 (64Cu-DOTA-labelled FN3CD20) (designed binder)
chain: ASVSDVPRDLEVVAATPTSLLISWCRQRCADSYRITYGETGGNSPVQEFTVPGSWKTATISGLKPGVDYTITVYVVTHYYGWDRYSHPISINYRTGSHHHHHH
modifications: DOTA conjugated to primary amines (1.8 DOTA molecules per FN3 protein), chelating 64Cu
notes: also called 64Cu-FN3CD20; 64Cu-FN3
Consider B6, for which, in test [5], the binding result is “binds”.
